In the test the target is T1, mSos1 (human (endogenous in A549)), Q07889.
T1 chain: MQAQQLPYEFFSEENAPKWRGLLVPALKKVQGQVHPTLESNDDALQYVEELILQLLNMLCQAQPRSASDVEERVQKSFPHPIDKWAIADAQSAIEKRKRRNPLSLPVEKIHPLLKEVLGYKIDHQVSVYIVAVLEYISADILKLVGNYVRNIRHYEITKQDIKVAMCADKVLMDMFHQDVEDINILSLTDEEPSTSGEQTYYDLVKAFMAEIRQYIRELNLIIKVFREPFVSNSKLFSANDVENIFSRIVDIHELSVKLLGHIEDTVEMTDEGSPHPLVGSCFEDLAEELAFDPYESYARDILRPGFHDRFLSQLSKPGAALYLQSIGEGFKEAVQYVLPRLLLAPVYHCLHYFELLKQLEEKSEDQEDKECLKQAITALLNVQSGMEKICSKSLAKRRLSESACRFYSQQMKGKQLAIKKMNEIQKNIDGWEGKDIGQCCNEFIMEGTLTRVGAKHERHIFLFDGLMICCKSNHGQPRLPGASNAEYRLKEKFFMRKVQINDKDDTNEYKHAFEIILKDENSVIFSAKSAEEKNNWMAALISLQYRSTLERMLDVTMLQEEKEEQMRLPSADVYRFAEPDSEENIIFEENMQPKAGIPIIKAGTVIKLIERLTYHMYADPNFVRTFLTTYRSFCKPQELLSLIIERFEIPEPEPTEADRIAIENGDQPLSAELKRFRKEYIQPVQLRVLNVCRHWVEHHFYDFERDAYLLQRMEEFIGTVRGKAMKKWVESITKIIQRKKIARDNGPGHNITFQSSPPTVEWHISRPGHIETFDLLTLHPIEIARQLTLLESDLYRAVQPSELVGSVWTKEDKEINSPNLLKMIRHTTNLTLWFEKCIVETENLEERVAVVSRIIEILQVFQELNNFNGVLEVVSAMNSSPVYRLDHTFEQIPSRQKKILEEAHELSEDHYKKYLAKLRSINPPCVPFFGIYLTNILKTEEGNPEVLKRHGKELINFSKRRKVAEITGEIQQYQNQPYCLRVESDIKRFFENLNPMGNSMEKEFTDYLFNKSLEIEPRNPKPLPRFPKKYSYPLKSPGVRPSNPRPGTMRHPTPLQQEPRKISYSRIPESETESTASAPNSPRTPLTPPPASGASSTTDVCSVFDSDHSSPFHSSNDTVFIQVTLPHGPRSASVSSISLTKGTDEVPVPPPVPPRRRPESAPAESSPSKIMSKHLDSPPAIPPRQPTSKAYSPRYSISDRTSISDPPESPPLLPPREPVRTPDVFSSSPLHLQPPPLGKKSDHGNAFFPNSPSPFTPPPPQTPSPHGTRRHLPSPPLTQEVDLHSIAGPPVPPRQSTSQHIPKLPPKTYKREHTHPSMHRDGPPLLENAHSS
Kind of test: co-IP; A549 and A549 + ITSN-1s (stable myc-ITSN-1s) cell lysates, 500 ug total protein, lysis buffer 50 mM Tris-HCl pH 8.0, 150 mM NaCl, 1 % NP-40; IP with 3 ug mSos1 or Cbl Ab and protein A/G, WB with Rac1 or Eps8 Ab; densitometry as percentage of control. As to conditions: remark: other sources report otherwise.

From PMC5024437 come the findings set out here.

B1: Eps8, Q12929 1-822 (natural protein)
chain: MNGHISNHPSSFGMYPSQMNGYGSSPTFSQTDREHGSKTSAKALYEQRKNYARDSVSSVSDISQYRVEHLTTFVLDRKDAMITVDDGIRKLKLLDAKGKVWTQDMILQVDDRAVSLIDLESKNELENFPLNTIQHCQAVMHSCSYDSVLALVCKEPTQNKPDLHLFQCDEVKANLISEDIESAISDSKGGKQKRRPDALRMISNADPSIPPPPRAPAPAPPGTVTQVDVRSRVAAWSAWAADQGDFEKPRQYHEQEETPEMMAARIDRDVQILNHILDDIEFFITKLQKAAEAFSELSKRKKNKKGKRKGPGEGVLTLRAKPPPPDEFLDCFQKFKHGFNLLAKLKSHIQNPSAADLVHFLFTPLNMVVQATGGPELASSVLSPLLNKDTIDFLNYTVNGDERQLWMSLGGTWMKARAEWPKEQFIPPYVPRFRNGWEPPMLNFMGATMEQDLYQLAESVANVAEHQRKQEIKRLSTEHSSVSEYHPADGYAFSSNIYTRGSHLDQGEAAVAFKPTSNRHIDRNYEPLKTQPKKYAKSKYDFVARNNSELSVLKDDILEILDDRKQWWKVRNASGDSGFVPNNILDIVRPPESGLGRADPPYTHTIQKQRMEYGPRPADTPPAPSPPPTPAPVPVPLPPSTPAPVPVSKVPANITRQNSSSSDSGGSIVRDSQRHKQLPVDRRKSQMEEVQDELIHRLTIGRSAAQKKFHVPRQNVPVINITYDSTPEDVKTWLQSKGFNPVTVNSLGVLNGAQLFSLNKDELRTVCPEGARVYSQITVQKAALEDSSGSSELQEIMRRRQEKISAAASDSGVESFDEGSSH
In the case of B1, the percent decrease of the co-precipitated complex in A549 + ITSN-1s cells against A549 cells amounted to 54%.
